The text below walks through data of patent US20210087291A1 (Hoffmann-La Roche, published 2021).

In assay [1] the target is T1, murine FolR1 ECD-AcTev-Fcknob-Avitag + Fc hole, biotinylated monomeric Fc fusion (murine, UniProt P0DOX5 223-449 = IgG part).
T1 construct: also called muFolR1; murine FolR1-Fc
Nature of the assay: SPR ProteOn, Fab analyte.
Experimental: Immobilization of antigens (ligand): Recombinant antigens were diluted with PBST (10 mM phosphate, 150 mM sodium chloride pH 7.4, 0.005% Tween 20) to 10 μg/ml, then injected at 30 μl/minute in vertical orientation. Injection of analytes: For ‘one-shot kinetics’ measurements, injection direction was changed to horizontal orientation, two-fold dilution series of purified Fab (varying concentration ranges) were injected simultaneously along separate channels 1-5, with association times of 150 or 200 s, and dissociation times of 200 or 600 s, respectively. Buffer (PBST) was injected along the sixth channel to provide an “in-line” blank for referencing. Association rate constants (kₒₙ) and dissociation rate constants (koff) were calculated using a simple one-to-one Langmuir binding model in ProteOn Manager v3.1 software by simultaneously fitting the association and dissociation sensorgrams. The equilibrium dissociation constant (KD) was calculated as the ratio koff/kₒₙ.

Assay [2] deals with T2, human TIM-3 on cells (human, UniProt Q8TDQ0 22-301). As to the kind of experiment: cell-based or functional assay.
Assay [3] has as its target T3, cynomolgus TIM-3 on isolated cyno CD14+ monocytes (cynomolgus).
T3 construct: whole, on cells
Nature of the assay: flow cytometry, cyno CD14+ monocytes cyno2.

The target in assay [4] is T2, human TIM-3 on cells. Nature of the assay: cell-based or functional assay. This is another data set of the same source.
The target in assay [5] is T2, human TIM-3 on cells. As to the kind of experiment: flow cytometry, human CD14+ monocytes donor1. (In flow cytometry, cells or beads pass a laser one at a time.)
Assay [6] addresses T2, human TIM-3 on cells. Nature of the assay: flow cytometry, human CD14+ monocytes donor2.
The target of assay [7] is T2, human TIM-3 on cells. As to the kind of experiment: flow cytometry, human CD14+ monocytes donor3.
Text: CD14+ Monocytes were isolated from anticoagulated peripheral blood of healthy donors by density gradient centrifugation using Ficoll-Paque (GE Healthcare) (see General Protocols in the User Manuals or visit www.miltenyibiotec.com/protocols) and subsequent positive selection via CD14 MicroBeads. First the CD14+ cells are magnetically labeled with CD14 MicroBeads. Then the cell suspension is loaded onto a MACS® Column which is placed in the magnetic field of a MACS Separator. The magnetically labeled CD14+ cells are retained in the column. The unlabeled cells run through, this cell fraction is depleted of CD14+ cells. After removal of the column from the magnetic field, the magnetically retained CD14+ cells can be eluted as the positively selected cell fraction. After centrifugation at 200×g for 10 min at room temperature the monocytes were harvested and used directly in binding assay or resuspended in freezing medium (10% DMSO, 90% FCS) at 1.0E+07 cells/ml and stored in liquid nitrogen.
1×10⁵ CD14+ isolated human monocytes (50 μl/well) were put into 98 well-v bottom MTP in fresh culture medium and incubated with Redimune® NF Liquid for 15 min at RT to block unspecific binding. […] After washing and centrifugation MFI signals of stained cells were analyzed by BD Biosciences FACSCanto flow cytometer.
In assay [8] the target is T3, cynomolgus TIM-3 on isolated cyno CD14+ …. Nature of the assay: flow cytometry, cyno CD14+ monocytes cyno3.
Text: (§1) CD14+ Monocytes were isolated from cynomolgus monkey anticoagulated peripheral blood (Covance) by density gradient centrifugation using Ficoll-Paque (GE Healthcare) (see General Protocols in the User Manuals or visit www.miltenyibiotec.com/protocols) and subsequent positive selection via NHP CD14 MicroBeads. First the CD14+ cells are magnetically labeled with CD14 MicroBeads. Then the cell suspension is loaded onto a MACS® Column which is placed in the magnetic field of a MACS Separator. The magnetically labeled CD14+ cells are retained in the column. The unlabeled cells run through, this cell fraction is depleted of CD14+ cells. After removal of the column from the magnetic field, the magnetically retained CD14+ cells can be eluted as the positively selected cell fraction. After centrifugation at 200×g for 10 min at room temperature the monocytes were harvested and used directly in binding assay or resuspended in freezing medium (10% DMSO, 90% FCS) at 1.0E+07 cells/ml and stored in liquid nitrogen.
(§2) 1×10⁵ CD14+ isolated cyno monocytes (50 μl/well) were put into 98 well-v bottom MTP in fresh culture medium and incubated with Redimune® NF Liquid for 15 min at RT to block unspecific binding. Than 50 μl/well of Alexa488 labeled anti-TIM3 (10 μg/ml in cell culture medium) were added and incubated for 1 h at 4° C. After washing and centrifugation MFI signals of stained cells were analyzed by BD Biosciences FACSCanto flow cytometer.
Assay [9] shares this target. As to the kind of experiment: flow cytometry, cyno CD14+ monocytes cyno1.
Text: as §1, §2
Assay [10] has as its target T4, human FolR3 ECD-AcTev-Fcknob-Avi tag + Fc hole, biotinylated monomeric Fc fusion (human, UniProt P0DOX5 223-449 = IgG part).
T4 construct: also called huFolR3; FolR3-Fc
Nature of the assay: SPR, IgG single injection.

Assay [11] concerns the target T5, human FolR2 ECD-AcTev-Fcknob-Avi tag + Fc hole, biotinylated monomeric Fc fusion (human, UniProt P0DOX5 223-449 = IgG part).
T5 construct: also called huFolR2; FolR2-Fc
As to the kind of experiment: SPR, IgG single injection. On the technique in general: In SPR one partner is held on a chip, and binding of the other changes the refractive index at the surface.

Assay [12] deals with T1, murine FolR1 ECD-AcTev-Fcknob-Avitag + …. As to the kind of experiment: SPR, IgG single injection.
Assay [13] concerns the target human FolR2 on transiently transfected HEK cells (human, UniProt P14207 17-230). As to the kind of experiment: flow cytometry on HEK cells transiently transfected with human FolR2, anti-human secondary antibody; concentration not given.
Assay [14] concerns the target T6, cynomolgus Tim3 (ELISA) (cynomolgus, UniProt A0A2K5U3G7 22-193).
T6 construct: also called Biochem Cyno; cyno TIM3
T6 sequence: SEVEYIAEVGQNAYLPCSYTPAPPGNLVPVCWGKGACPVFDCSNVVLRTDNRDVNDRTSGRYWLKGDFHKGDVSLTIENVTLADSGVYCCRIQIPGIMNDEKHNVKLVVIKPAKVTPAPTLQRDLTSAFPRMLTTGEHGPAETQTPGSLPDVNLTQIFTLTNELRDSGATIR
As to the kind of experiment: ELISA, cyno Tim3. For orientation: An ELISA detects its analyte on a solid surface through an enzyme-linked reagent.

Assay [15] deals with T7, Tim3-ECD-His-Biotin (human, UniProt Q8TDQ0 22-202).
T7 construct: also called human Tim3 (ELISA); Biochem Human
As to the kind of experiment: ELISA, human Tim3.

The target of assay [16] is T6, cynomolgus Tim3 (ELISA). As to the kind of experiment: ELISA, cyno Tim3; EC50 relative to the sample's max value.
Assay [17] deals with T2, human TIM-3 on cells. As to the kind of experiment: cell ELISA, CHO-Tim3.
Assay [18] deals with T2, human TIM-3 on cells. As to the kind of experiment: cell ELISA, CHO-Tim3; EC50 relative to the sample's max value.
In assay [19] the target is T7, Tim3-ECD-His-Biotin. Nature of the assay: ELISA, human Tim3; EC50 relative to the sample's max value.

Chain of human FolR2 on transiently transfected HEK cells (P14207 17-230 limits assumed): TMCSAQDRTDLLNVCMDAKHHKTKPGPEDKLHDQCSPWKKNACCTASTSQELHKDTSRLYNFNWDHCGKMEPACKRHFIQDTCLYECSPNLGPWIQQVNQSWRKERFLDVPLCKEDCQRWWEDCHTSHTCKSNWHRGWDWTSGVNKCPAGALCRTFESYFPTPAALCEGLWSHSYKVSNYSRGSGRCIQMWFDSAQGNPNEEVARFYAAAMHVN

B1: 11F8 Fab (Fab, V domains shown)
VH: QVQLVQSGAEVKKPGSSVKVSCKASGGTFSSYAISWVRQAPGQGLEWMGGIIPIFGTANYAQKFQGRVTITADKSTSTAYMELSSLRSEDTAVYYCARAVFYRAWYSFDYWGQGTTVTVSS
VL: DIQMTQSPSTLSASVGDRVTITCRASQSISSWLAWYQQKPGKAPKLLIYDASSLESGVPSRFSGSGSGTEFTLTISSLQPDDFATYYCQQYTSPPPTFGQGTKVEIK
A word on the Kd: it is the equilibrium constant for the complex coming apart. Regarding B1, in [1], the Kd was determined as 1.2 µM.

B2: Tim3_0028 (antibody, V domains shown)
VH: EVQLQQSVAELVRPGASVKLSCTASGFNIKTTYMHWVKQRPEQGLEWIGRIDPADDNTKYAPKFQGKATITADTSSNTAYLQLSSLTSEDAAIYYCVRDFGYVAWFAYWGQGTLVTFSA
VL: NIVMTPTPKFLPVSSGDRVTMTCRASQSVDNYVAWYQQKPGQSPKLLIYYASNRYIGVPDRFTGSGSGTDFTFTISSVQVEDLAVYFCQQHYSSPYTFGSGTKLEIK
In the case of B2, the “IFN-gamma release in MLR at 1 µg/ml, % of IL-2 control” value with human TIM-3 on cells [2] was determined as 12%. The MFI in assay [3] was found to be 3000 MFI; in assay [8] it was 4090 MFI; in assay [9] it was 3940 MFI. Further, in the assay with human TIM-3 on cells [4], the “internalization at 30 Min, RPMI-8226” value was found to be 50%. Moreover, the “internalization at 60 Min, RPMI-8226” value in the assay with human TIM-3 on cells [4] stood at 59%. Moreover, in the assay with human TIM-3 on cells [4], the “internalization at 120 Min, RPMI-8226” value is 67%. In addition, the “internalization at 240 Min, RPMI-8226” value in the assay with human TIM-3 on cells [4] turned out to be 68%. For the same molecule, the “internalization at 26 h, RPMI-8226” value with human TIM-3 on cells [4] was 83%. For the same molecule, the “specific binding MFI” value was determined as 1350 MFI in the assay with human TIM-3 on cells [5], 950 MFI with human TIM-3 on cells [6] and 1610 MFI with human TIM-3 on cells [7].

B3: 16F12 IgG (antibody, V domains shown)
VH: QVQLVQSGAEVKKPGASVKVSCKASGYTFTSYYMHWVRQAPGQGLEWMGIINPSGGSTSYAQKFQGRVTMTRDTSTSTVYMELSSLRSEDTAVYYCARNFTVLRVPFDYWGQGTLVTVSS
VL: QAVVTQEPSLTVSPGGTVTLTCGSSTGAVTTSNYANWVQEKPGQAFRGLIGGTNKRAPGTPARFSGSLLGGKAALTLSGAQPEDEAEYYCALWYSNLWVFGGGTKLTVL
notes: human IgG1
Turning to B3, the binding result in [10], in assay [11] and in [12] was “no binding (tested: 500 nM)” each time.

B4: 21A5 IgG (antibody, V domains shown)
VH: not shown
VL: QAVVTQEPSLTVSPGGTVTLTCGSSTGAVTTSNYANWVQEKPGQAFRGLIGGTNKRAPGTPARFSGSLLGGKAALTLSGAQPEDEAEYYCALWYSNLWVFGGGTKLTVL
notes: human IgG1
As to B4, the results for the binding result in assay [11], in assay [12] and in [13] were “no binding (tested: 500 nM)”, “no binding (tested: 500 nM)” and “no binding”, respectively.

B5: 21G8 IgG (antibody, V domains shown)
VH: not shown
VL: QAVVTQEPSLTVSPGGTVTLTCGSSTGAVTTSNYANWVQEKPGQAFRGLIGGTNKRAPGTPARFSGSLLGGKAALTLSGAQPEDEAEYYCALWYSNLWVFGGGTKLTVL
notes: human IgG1
Take B5: the binding result in [12] is “no binding (tested: 500 nM)”; in assay [13], “binds”.

B6: 16D5 IgG (antibody, V domains shown)
VH: not shown
VL: QAVVTQEPSLTVSPGGTVTLTCGSSTGAVTTSNYANWVQEKPGQAFRGLIGGTNKRAPGTPARFSGSLLGGKAALTLSGAQPEDEAEYYCALWYSNLWVFGGGTKLTVL
notes: human IgG1
On to B6, for which the binding result is listed as “no binding (tested: 500 nM)” in [10], “no binding (tested: 500 nM)” in assay [11], “no binding (tested: 500 nM)” in assay [12] and “no binding” in assay [13].

B7: 15B6 IgG (antibody, V domains shown)
VH: QVQLVQSGAEVKKPGASVKVSCKASGYTFTSYYMHWVRQAPGQGLEWMGIINPSGGSTSYAQKFQGRVTMTRDTSTSTVYMELSSLRSEDTAVYYCARNYYIGIVPFDYWGQGTLVTVSS
VL: QAVVTQEPSLTVSPGGTVTLTCGSSTGAVTTSNYANWVQEKPGQAFRGLIGGTNKRAPGTPARFSGSLLGGKAALTLSGAQPEDEAEYYCALWYSNLWVFGGGTKLTVL
notes: human IgG1
For the molecule B7, the binding result in [10], in assay [11] and in assay [12] was “no binding (tested: 500 nM)” each time.

B8: aTim3 0018MutNQ (antibody, V domains shown)
VH: QVTLKESGPGILQPSQTLSLTCSFSGFSLSTSGMSVGWIRQPSGKGLEWLAHIWLNDDVFFNPALKRRLTISKDTSNNQVFLQIASVVTADTATYYCVRANGYLYALDYWGQGISVTVSS
VL: QIVLTQSPAIMSASPGQKVTITCSASSSVQYTQWYQQKLGSSPKLWIYDAFKLAPGVPARFSGSGTGTSYSLTISSMEAEDAASYFCHQWSSYPWTFGGGTKLEIK
notes: also called aT3m3 0018MutNQ
Usually EC50 stands for the concentration at which the effect is half-maximal. On to B8, for which the inflexion point in the assay with cynomolgus Tim3 (ELISA) [14] was 10.8 ng/mL; with Tim3-ECD-His-Biotin [15], 10.8 ng/mL; in the assay with human TIM-3 on cells [17], 12.8 ng/mL. Moreover, the EC50 stood at 13.2 ng/mL with cynomolgus Tim3 (ELISA) [16], 13.4 ng/mL in the assay with human TIM-3 on cells [18] and 12 ng/mL with Tim3-ECD-His-Biotin [19].

B9: aTim3 0018MutNS (antibody, V domains shown)
VH: QVTLKESGPGILQPSQTLSLTCSFSGFSLSTSGMSVGWIRQPSGKGLEWLAHIWLNDDVFFNPALKRRLTISKDTSNNQVFLQIASVVTADTATYYCVRANGYLYALDYWGQGISVTVSS
VL: QIVLTQSPAIMSASPGQKVTITCSASSSVSYTQWYQQKLGSSPKLWIYDAFKLAPGVPARFSGSGTGTSYSLTISSMEAEDAASYFCHQWSSYPWTFGGGTKLEIK
notes: also called aT3m3 0018MutNS
B9: the inflexion point amounted to 6.5 ng/mL in the assay with cynomolgus Tim3 (ELISA) [14], 6.5 ng/mL with Tim3-ECD-His-Biotin [15] and 11.1 ng/mL with human TIM-3 on cells [17]. The EC50 was determined as 11.9 ng/mL with cynomolgus Tim3 (ELISA) [16], 11.2 ng/mL in the assay with human TIM-3 on cells [18] and 10.3 ng/mL in the assay with Tim3-ECD-His-Biotin [19].

B10: aTim3 0016MutNS (antibody, V domains shown)
VH: QVTLKESGPGILQPSQTLRLTCSFSGFSLSTSGMSVGWIRQPSGKGLEWLAHIWLNDDVFFNPALKSRLTISKDTSNNQVFLQIASVVTADTATYYCVRANGYLYALDYWGQGTSVTVSS
VL: QIVLTQSPAIMSASPGQKVTITCSASSSVSYTQWYQQKLGSSPKLWIYDAFKLAPGVPARFSGSGTGTSYSLTISSMEAEDAASYFCHQWSSYPWTFGGGTKLEIK
Take B10: the inflexion point in the assay with cynomolgus Tim3 (ELISA) [14] worked out at 5.5 ng/mL; with Tim3-ECD-His-Biotin [15] it was 6.5 ng/mL; in the assay with human TIM-3 on cells [17], 8.5 ng/mL. In addition, the figures for the EC50 with cynomolgus Tim3 (ELISA) [16], with human TIM-3 on cells [18] and with Tim3-ECD-His-Biotin [19] were 9.7 ng/mL, 9.1 ng/mL and 8.5 ng/mL, respectively.

B11: aTim3 0016 MutNQ (antibody, V domains shown)
VH: QVTLKESGPGILQPSQTLRLTCSFSGFSLSTSGMSVGWIRQPSGKGLEWLAHIWLNDDVFFNPALKSRLTISKDTSNNQVFLQIASVVTADTATYYCVRANGYLYALDYWGQGTSVTVSS
VL: QIVLTQSPAIMSASPGQKVTITCSASSSVQYTQWYQQKLGSSPKLWIYDAFKLAPGVPARFSGSGTGTSYSLTISSMEAEDAASYFCHQWSSYPWTFGGGTKLEIK
With B11, the inflexion point with cynomolgus Tim3 (ELISA) [14] was determined as 5.7 ng/mL; in the assay with Tim3-ECD-His-Biotin [15] it was 5.7 ng/mL; with human TIM-3 on cells [17], 5.4 ng/mL. Moreover, the EC50 in the assay with cynomolgus Tim3 (ELISA) [16] came to 8.3 ng/mL; with human TIM-3 on cells [18], 6.8 ng/mL; in the assay with Tim3-ECD-His-Biotin [19] it was 7.6 ng/mL.

B12: 6B6 IgG (antibody, V domains shown)
VH: QVQLVQSGAEVKKPGASVKVSCKASGYTFTSYYMHWVRQAPGQGLEWMGIINPSGGSTSYAQKFQGRVTMTRDTSTSTVYMELSSLRSEDTAVYYCARSYVDMDYWGQGTLVTVSS
VL: EIVLTQSPGTLSLSPGERATLSCRASQSVSSSYLAWYQQKPGQAPRLLIYGASSRATGIPDRFSGSGSGTDFTLTISRLEPEDFAVYYCQQDIWSPTFGQGTKVEIK
notes: human IgG1
As for B12, in assay [12], the binding result was “no binding (tested: 500 nM)”.
